Experimental data from the supplement of paper PMC12783771.
Positions count from the first letter of the chain named. ± gives the standard deviation of the averaged measurements.

B1: library; numbered along this chain (parent)
chain: MNIQIGELAKRTACPVVTIRFYEQEGLLPPPGRSRGNFRLYGEEHVERLQFIRHCRSLDMPLSDVRTLLSYRKRPDQDCGEVNMLLDEHIRQVESRIGALLELKHHLVELREACSGARPAQSCGILQGLSDCVCDTRGTTAHPSD
B2: library; a variant is named by its letters at X, in order (parent)
chain: B1 chain with D64X, N83X, I90X, K104X, H106X, P143X

Key:
[1] = variants of: B1; test: sfGFP reporter fluorescence (15 h) (µM FITC); higher = higher leak; conditions: library round: Round 0; ligand: none
In short: (§1)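 An Echo normalized PCR-made linear PbrR templates to 5 nM and assembled 1 μL reactions in BL21 Star (DE3) PANOx-SP extract carrying the pPbrR-sfGFP reporter plasmid and 30 μg/mL GamS. Reactions received 1 µM lead chloride, 30 µM zinc acetate or no metal and stood 15 hr at 30 °C. Fluorescence at 485/528 nm (Synergy Neo2) was converted with FITC standard curves made in 50 mM sodium borate pH 8.5. Endpoint sfGFP signal is given in µM FITC, from up to three biological replicates.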

[2] = variants of: B1; test: sfGFP reporter fluorescence (15 h) (µM FITC); higher = stronger transcriptional activation; conditions: library round: Round 0
In short: as §1

[3] = variants of: B2; test: sfGFP reporter fluorescence (15 h) (µM FITC); higher = higher leak; conditions: library round: Round 3b; ligand: none
Procedure: (§2)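 Cell-free biosensing: 1 µL Echo-assembled CFE reactions with linear PbrR variant templates (5 nM) and pPbrR-sfGFP reporter, with 1 µM Pb, 30 µM Zn or no ligand; endpoint sfGFP fluorescence after 15 h at 30 °C calibrated as µM FITC. Round 3b rational combinatorial PbrR mutants; 3 biological replicates.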

[4] = variants of: B2; test: sfGFP reporter fluorescence (15 h) (µM FITC); higher = stronger transcriptional activation; conditions: library round: Round 3b
Procedure: as §2

Variant | sfGFP reporter fluorescence [1] | sfGFP reporter fluorescence ([2]; ligand: 1 µM Pb) | sfGFP reporter fluorescence ([2]; ligand: 30 µM Zn) | sfGFP reporter fluorescence [3] | sfGFP reporter fluorescence ([4]; ligand: 1 µM Pb) | sfGFP reporter fluorescence ([4]; ligand: 30 µM Zn)
C134R | 0.0731 ± 0.0023 | 0.0993 ± 0.0042 | 1.66 ± 0.018 | – | – | –
KIATAP | – | – | – | 0.0703 ± 0.0043 | 1.26 ± 0.096 | 0.0679 ± 0.006
KIATAT | – | – | – | 0.0691 ± 0.0019 | 1.29 ± 0.062 | 0.0697 ± 0.0016
KIATAR | – | – | – | 0.069 ± 0.0014 | 1.49 ± 0.15 | 0.0681 ± 0.0007
DIAKER | – | – | – | 0.0433 ± 0.0047 | 0.0512 ± 0.0021 | 0.0452 ± 0.0035
KNATEP | – | – | – | 0.0501 ± 0.0039 | 0.279 ± 0.052 | 0.261 ± 0.015
KNATET | – | – | – | 0.055 ± 0.0007 | 0.324 ± 0.017 | 0.34 ± 0.031
KIAKER | – | – | – | 0.0554 ± 0.0012 | 0.614 ± 0.024 | 0.0592 ± 0.0041
DIAKAT | – | – | – | 0.0356 ± 0.0029 | 0.0683 ± 0.0046 | 0.0346
DIAVAT | – | – | – | 0.0441 ± 0.0047 | 0.096 ± 0.0083 | 0.0457 ± 0.0025
DIAVAP | – | – | – | 0.0451 ± 0.0067 | 0.0922 ± 0.0043 | 0.0441 ± 0.0071
KIAKHT | – | – | – | 0.0693 ± 0.0034 | 0.93 ± 0.043 | 0.152 ± 0.011
KIAKHR | – | – | – | 0.072 ± 0.002 | 1.07 ± 0.074 | 0.135 ± 0.017
KIIVEP | – | – | – | 0.0554 ± 0.0036 | 0.372 ± 0.031 | 0.0556 ± 0.0028
KFIVEP | – | – | – | 0.0475 ± 0.004 | 0.567 ± 0.017 | 0.107 ± 0.013
KFIVET | – | – | – | 0.0511 ± 0.0019 | 0.453 ± 0.057 | 0.094 ± 0.006
KIATEP | – | – | – | 0.0672 ± 0.0044 | 1 ± 0.062 | 0.0643 ± 0.0007
KIITER | – | – | – | 0.0454 ± 0.0026 | 0.266 ± 0.0032 | 0.0497 ± 0.0018
KIITEP | – | – | – | 0.0456 ± 0.0027 | 0.301 ± 0.011 | 0.0508 ± 0.0019
KIITHT | – | – | – | 0.0492 ± 0.0029 | 0.471 ± 0.031 | 0.0728 ± 0.0057
KIITHR | – | – | – | 0.0506 ± 0.0028 | 0.485 ± 0.067 | 0.0734 ± 0.0022
DNAVET | – | – | – | 0.0438 ± 0.0014 | 0.0536 ± 0.0031 | 0.0603 ± 0.0036

Variant | sfGFP reporter fluorescence [1] | sfGFP reporter fluorescence ([2]; ligand: 1 µM Pb) | sfGFP reporter fluorescence ([2]; ligand: 30 µM Zn) | sfGFP reporter fluorescence [3] | sfGFP reporter fluorescence ([4]; ligand: 1 µM Pb) | sfGFP reporter fluorescence ([4]; ligand: 30 µM Zn)
DNAVER | – | – | – | 0.0468 ± 0.0035 | 0.0511 ± 0.0015 | 0.062 ± 0.0046
KFAVHR | – | – | – | 0.0469 ± 0.0029 | 0.631 ± 0.038 | 0.171 ± 0.017
KFAVHT | – | – | – | 0.0459 ± 0.0029 | 0.632 ± 0.071 | 0.179 ± 0.029
DIATEP | – | – | – | 0.046 ± 0.0012 | 0.0616 ± 0.0042 | 0.0456 ± 0.0029
DIATET | – | – | – | 0.0419 ± 0.0022 | 0.0628 ± 0.00089 | 0.0452 ± 0.0012
KFAKER | – | – | – | 0.0536 ± 0.0034 | 0.438 ± 0.026 | 0.0631 ± 0.0086
KFAVER | – | – | – | 0.0512 ± 0.0022 | 0.51 ± 0.029 | 0.056 ± 0.0049
KFAVEP | – | – | – | 0.0452 ± 0.0037 | 0.533 ± 0.03 | 0.0557 ± 0.0048
KNATHR | – | – | – | 0.0571 ± 0.0019 | 0.412 ± 0.041 | 0.602 ± 0.08
KNATHT | – | – | – | 0.0681 ± 0.0016 | 0.443 ± 0.015 | 0.764 ± 0.13
DNIKHP | – | – | – | 0.043 ± 0.0052 | 0.0535 ± 0.0032 | 0.281 ± 0.018
KFATER | – | – | – | 0.0457 ± 0.0041 | 0.594 ± 0.024 | 0.0571 ± 0.014
KFATEP | – | – | – | 0.0465 ± 0.0032 | 0.442 ± 0.0057 | 0.0564 ± 0.0029
KIATHR | – | – | – | 0.0655 ± 0.0015 | 1.19 ± 0.2 | 0.0963 ± 0.013
KFATAR | – | – | – | 0.0492 ± 0.0024 | 0.462 ± 0.068 | 0.0554 ± 0.0012
KFATAP | – | – | – | 0.0501 ± 0.0052 | 0.3845 ± 0.0014 | 0.0524 ± 0.00067
DFAVEP | – | – | – | 0.0418 ± 0.0019 | 0.0531 ± 0.0031 | 0.0466 ± 0.0044
KNIVER | – | – | – | 0.115 ± 0.006 | 0.585 ± 0.046 | 1.4 ± 0.2
KNIVET | – | – | – | 0.112 ± 0.0075 | 0.514 ± 0.055 | 1.2 ± 0.06
DIAVHT | – | – | – | 0.0457 ± 0.0036 | 0.102 ± 0.0083 | 0.0483 ± 0.0036
KNAVHT | – | – | – | 0.0573 ± 0.0042 | 0.322 ± 0.0077 | 0.602 ± 0.057
DIATAP | – | – | – | 0.0413 ± 0.0051 | 0.087 ± 0.01 | 0.0433 ± 0.0057
